Patent publication US20130225493A1

How the values were obtained:
[1] = target: FGFR3-IIIc stably expressed on FDCP cells (UniProt P22607); assay: cell-based or functional assay
[2] = target: FGFR1 extracellular domain, immobilized (R1-Fc) (UniProt P11362); assay: functional ELISA on immobilized FGFR
[3] = target: FGFR2 extracellular domain, immobilized (R2-Fc) (UniProt P21802); assay: functional ELISA on immobilized FGFR
[4] = target: FGFR3 extracellular domain, immobilized (R3-Fc) (UniProt P22607); assay: functional ELISA on immobilized FGFR
[5] = target: FGFR1 extracellular domain, immobilized (R1-Fc) (UniProt P11362); assay: ELISA: biotinylated ligand on immobilized FGFR-Fc, HRP-streptavidin
[6] = target: FGFR2 extracellular domain, immobilized (R2-Fc) (UniProt P21802); assay: as above
[7] = target: FGFR3 extracellular domain, immobilized (R3-Fc) (UniProt P22607); assay: as above

Chain of FGF-18^Δ51 (O76093 other isoform, or with tags, fused parts or gaps mutant limits assumed): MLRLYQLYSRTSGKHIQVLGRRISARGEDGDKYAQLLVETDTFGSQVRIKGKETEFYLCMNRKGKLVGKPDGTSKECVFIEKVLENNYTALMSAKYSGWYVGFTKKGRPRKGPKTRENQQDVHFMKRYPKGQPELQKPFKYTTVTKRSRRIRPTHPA
Chain of FGF-18 (recombinant wild type, mature form without the signal peptide) (O76093 other isoform, or with tags, fused parts or gaps): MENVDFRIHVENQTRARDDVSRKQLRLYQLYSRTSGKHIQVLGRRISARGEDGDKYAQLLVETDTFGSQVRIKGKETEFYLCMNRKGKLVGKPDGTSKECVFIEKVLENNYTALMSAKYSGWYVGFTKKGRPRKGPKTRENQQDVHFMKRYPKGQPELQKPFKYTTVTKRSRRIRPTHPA
Chain of FGF-18^Δ31 (O76093 other isoform, or with tags, fused parts or gaps mutant limits assumed): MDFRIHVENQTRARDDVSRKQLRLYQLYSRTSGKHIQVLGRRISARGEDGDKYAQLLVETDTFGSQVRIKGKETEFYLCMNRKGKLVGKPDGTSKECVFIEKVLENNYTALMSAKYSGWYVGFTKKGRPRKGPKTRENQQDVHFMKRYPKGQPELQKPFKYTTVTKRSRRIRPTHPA
Chain of FGF-18^Δ37 (O76093 other isoform, or with tags, fused parts or gaps mutant limits assumed): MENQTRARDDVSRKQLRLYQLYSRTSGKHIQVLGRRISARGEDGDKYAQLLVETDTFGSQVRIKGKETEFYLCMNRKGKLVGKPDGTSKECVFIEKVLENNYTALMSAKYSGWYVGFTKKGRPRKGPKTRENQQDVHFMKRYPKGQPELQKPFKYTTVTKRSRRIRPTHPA
Chain of FGF-18^Δ33 (O76093 other isoform, or with tags, fused parts or gaps mutant limits assumed): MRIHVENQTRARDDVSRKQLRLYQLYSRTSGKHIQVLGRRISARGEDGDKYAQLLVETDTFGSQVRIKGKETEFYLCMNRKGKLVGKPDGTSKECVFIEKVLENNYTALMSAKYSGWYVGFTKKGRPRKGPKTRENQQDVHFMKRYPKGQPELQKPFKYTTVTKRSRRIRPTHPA
Chain of FGF-18^Δ45 (O76093 other isoform, or with tags, fused parts or gaps mutant limits assumed): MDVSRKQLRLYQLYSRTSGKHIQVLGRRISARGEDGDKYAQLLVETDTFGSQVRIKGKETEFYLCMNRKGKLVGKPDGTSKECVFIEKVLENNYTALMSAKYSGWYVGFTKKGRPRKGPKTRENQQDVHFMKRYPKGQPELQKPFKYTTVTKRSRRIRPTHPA
Chain of FGFR3-IIIc stably expressed on FDCP cells (P22607 23-806): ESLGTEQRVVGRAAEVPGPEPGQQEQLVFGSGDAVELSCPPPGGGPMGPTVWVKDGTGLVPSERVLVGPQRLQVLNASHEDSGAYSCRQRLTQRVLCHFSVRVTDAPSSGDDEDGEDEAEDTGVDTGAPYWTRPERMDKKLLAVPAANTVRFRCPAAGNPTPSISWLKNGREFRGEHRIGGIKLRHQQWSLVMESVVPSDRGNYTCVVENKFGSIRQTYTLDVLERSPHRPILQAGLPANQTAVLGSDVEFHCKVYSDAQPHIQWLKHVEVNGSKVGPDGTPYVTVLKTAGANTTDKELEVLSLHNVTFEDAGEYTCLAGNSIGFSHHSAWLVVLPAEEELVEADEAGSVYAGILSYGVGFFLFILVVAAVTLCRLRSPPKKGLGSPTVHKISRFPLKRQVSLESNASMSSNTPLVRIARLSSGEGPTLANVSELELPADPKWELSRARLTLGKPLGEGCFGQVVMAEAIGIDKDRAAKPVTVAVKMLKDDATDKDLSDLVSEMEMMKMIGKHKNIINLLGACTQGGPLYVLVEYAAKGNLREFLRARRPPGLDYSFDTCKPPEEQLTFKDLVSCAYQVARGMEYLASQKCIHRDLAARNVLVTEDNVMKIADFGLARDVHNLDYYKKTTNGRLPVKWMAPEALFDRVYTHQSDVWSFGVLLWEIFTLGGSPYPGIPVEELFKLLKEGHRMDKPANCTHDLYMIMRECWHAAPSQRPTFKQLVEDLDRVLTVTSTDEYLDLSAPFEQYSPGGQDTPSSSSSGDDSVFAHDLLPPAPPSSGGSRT

Substance | EC50 scores of FGF ligands in cell proliferation of FDCPR3 [1] [ng/mL] | EC50 [2] [ng/mL] | EC50 [3] [ng/mL] | EC50 [4] [ng/mL] | EC50 [5] [ng/mL] | EC50 [6] [ng/mL] | EC50 [7] [ng/mL]
FGF-2 wild type (from UniProt P09038 134-288) (ligand) | 1.19 | – | – | – | – | – | –
FGF-18 (recombinant wild type, mature form without the signal peptide) (from UniProt O76093 29-207) (ligand) | – | 22.8 | 8.76 | 6.59 | 28.2 | 9.51 | 5.04
FGF-18^Δ31 (from UniProt O76093 32-207) (ligand) | – | 24.4 | 11.2 | 8.55 | – | – | –
FGF-18^Δ33 (from UniProt O76093 34-207) (ligand) | – | – | – | 8.27 | – | – | –
FGF-18^Δ37 (from UniProt O76093 38-207) (ligand) | – | – | – | 9.75 | – | – | 5.94
FGF-18^Δ45 (from UniProt O76093 46-207) (ligand) | – | – | – | – | – | – | 9.16
FGF-18^Δ51 (from UniProt O76093 52-207) (ligand) | – | 41.9 | 43.5 | 9.99 | – | – | 10.2
